Source: paper PMC12855180 (Nature Communications, 2025)
Where a chain is given by its changes, count along the chain named. In names and notes the source's numbering stands. Read-outs that look alike come from different tables or passages of the source.

B1: FliD d0 domain truncation construct (FliD^d1d2d3, residues from 44 to 411) (domain or fragment)
chain: LTAYGTLKSALEKFQTANTALNKADLFKSTVASSTTEDLKVSTTAGAAAGTYKINVTQLAAAQSLATKTTFATTKEQLGDTSVTSRTIKIEQPGRKEPLEIKLDKGDTSMEAIRDAINDADSGIAASIVKVKENEFQLVLTANSGTDNTMKITVEGDTKLNDLLAYDSTTNTGNMQELVKAENAKLNVNGIDIERQSNTVTDAPQGITLTLTKKVTDATVTVTKDDTKAKEAIKSWVDAYNSLVDTFSSLTKYTAVEPGEEASDKNGALLGDSVVRTIQTGIRAQFANSGSNSAFKTMAEIGITQDGTSGKLKIDDDKLTKVLKDNTAAARELLVGDGKETGITTKIATEVKSYLADDGIIDNAQDNV
B2: full-length FliD, as in the fusion constructs (natural protein)
chain: MASISSLGVGSNLPLDQLLTDLTKNEKGRLTPITKQQSANSAKLTAYGTLKSALEKFQTANTALNKADLFKSTVASSTTEDLKVSTTAGAAAGTYKINVTQLAAAQSLATKTTFATTKEQLGDTSVTSRTIKIEQPGRKEPLEIKLDKGDTSMEAIRDAINDADSGIAASIVKVKENEFQLVLTANSGTDNTMKITVEGDTKLNDLLAYDSTTNTGNMQELVKAENAKLNVNGIDIERQSNTVTDAPQGITLTLTKKVTDATVTVTKDDTKAKEAIKSWVDAYNSLVDTFSSLTKYTAVEPGEEASDKNGALLGDSVVRTIQTGIRAQFANSGSNSAFKTMAEIGITQDGTSGKLKIDDDKLTKVLKDNTAAARELLVGDGKETGITTKIATEVKSYLADDGIIDNAQDNVNATLKSLTKQYLSVSNSIDETVARYKAQFTQLDTMMSKLNNTSSYLTQQFTAMNKS
B3: FliD^2C (A91C/A168C) (natural protein)
chain: B2 chain with A91C, A168C
B4: native FliD of the flagellar tip (natural protein)
chain: B2 chain
B5: FlgL, hook-filament junction protein (unlabeled, for NMR titration) (natural protein)
chain: MRISTQMMYEQNMSGITNSQAEWMKLGEQMSTGKRVTNPSDDPIAASQAVVLSQAQAQNSQYALARTFATQKVSLEESVLSQVTTAIQTAQEKIVYAGNGTLSDDDRASLATDLQGIRDQLMNLANSTDGNGRYIFAGYKTEAAPFDQATGGYHGGEKSVTQQVDSARTMVIGHTGAQIFNSITSNAVPEPDGSDSEKNLFVMLDTAIAALKTPVEGNNVEKEKAAAAIDKTNRGLKNSLNNVLTVRAELGTQLSELSTLDSLGSDRALGQKLQMSNLVDVDWNSVISSYVMQQAALQASYKTFTDMQGMSLFQLNR
B6: native FlgL of the hook-filament junction tip (natural protein)
chain: B5 chain
B7: FliC D1D2D3 (residues 45-455), as in the FliD-FliC fusion (domain or fragment)
chain: AAGQAIANRFTANIKGLTQASRNANDGISIAQTTEGALNEINNNLQRVRELAVQSANSTNSQSDLDSIQAEITQRLNEIDRVSGQTQFNGVKVLAQDNTLTIQVGANDGETIDIDLKQINSQTLGLDTLNVQQKYKVSDTAATVTGYADTTIALDNSTFKASATGLGGTDQKIDGDLKFDDTTGKYYAKVTVTGGTGKDGYYEVSVDKTNGEVTLAGGATSPLTGGLPATATEDVKNVQVANADLTEAKAALTAAGVTGTASVVKMSYTDNNGKTIDGGLAVKVGDDYYSATQNKDGSISINTTKYTADDGTSKTALNKLGGADGKTEVVSIGGKTYAASKAEGHNFKAQPDLAEAAATTTENPLQKIDAALAQVDTLRSDLGAVQNRFNSAITNLGNTVNNLTSARSRIE

How the values were obtained:
[1] = target: FliD D1 domain (FliD^d1) (Salmonella enterica serovar Typhimurium) (UniProt P16328); assay: NMR titration
[2] = target: the molecule itself; assay: cryo-EM structure
[3] = target: the molecule itself; assay: cryo-EM structure; remark: listed apart in the source
[4] = target: the molecule itself; assay: cryo-EM structure; remark: listed apart in the source
[5] = target: the molecule itself; assay: cross-linking
[6] = target: the molecule itself; assay: cryo-EM structure; remark: listed apart in the source
[7] = target: FliD D1 domain (FliD^d1) (Salmonella enterica serovar Typhimurium) (UniProt P16328); assay: NMR titration; remark: listed apart in the source
[8] = target: B2; assay: cryo-EM structure

For “FliC, flagellin (unlabeled, for NMR titration) (from UniProt P06179 1-495) (natural protein)”, the Kd [1] was 1650 µM and the stoichiometry N [1] was 1.

In the case of B1, the “stoichiometry N” value [2] is reported as 5.

For B2, the “stoichiometry N” value [3] was 10 and the “stoichiometry N” value [4] was 5.

B3 was tested, and the “stoichiometry N” value [5] was 5.

In the case of B4, the “stoichiometry N” value [6] is reported as 5.

With B5 the Kd [7] was 100 µM.

B6 was tested, and the “stoichiometry N” value [6] was 11.

With B7 the “stoichiometry N” value [8] was 1.
